Assays:
[1] = biological target: T1, membrane-bound B Lymphocyte Stimulator on U937 plasma membrane preparations (human, UniProt Q9Y275 1-285); assay: phage ELISA
T1 construct: Natural protein in plasma membrane fractions of the human cell line U937 coated on ELISA plates; also called U937 plasma membranes; U937 membranes

TNF-alpha = biological target: T2, TNF-alpha (human, UniProt P01375 77-233); assay: phage ELISA
T2 construct: also called TNFα; TNF-α

Fas ligand = biological target: T3, Fas ligand (human, UniProt P48023 134-281, limits assumed); assay: phage ELISA
T3 sequence (looked up): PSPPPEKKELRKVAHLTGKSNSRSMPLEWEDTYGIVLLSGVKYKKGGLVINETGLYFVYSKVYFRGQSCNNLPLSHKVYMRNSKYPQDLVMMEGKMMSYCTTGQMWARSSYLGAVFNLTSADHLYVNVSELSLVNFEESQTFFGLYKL

TNF-beta = biological target: T4, TNF-beta (human, UniProt P01374 35-205); assay: phage ELISA
T4 construct: also called TNFβ; Tumour Necrosis Factor-beta
T4 sequence (looked up): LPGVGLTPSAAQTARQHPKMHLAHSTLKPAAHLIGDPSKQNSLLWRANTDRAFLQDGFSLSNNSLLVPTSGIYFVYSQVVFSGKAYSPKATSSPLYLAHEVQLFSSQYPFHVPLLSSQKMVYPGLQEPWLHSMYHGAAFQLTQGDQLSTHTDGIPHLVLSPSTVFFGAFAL

TRAIL = biological target: T5, TRAIL (human, UniProt P50591 114-281); assay: phage ELISA
T5 construct: also called TNF-related apoptosis inducing ligand

[2] = biological target: T6, B Lymphocyte Stimulator, soluble form (human) (human, UniProt Q9Y275 134-285, biotinylated with NHS-biotin where used as biotinylated B Lymphocyte Stimulator); assay: phage competition ELISA
T6 construct: Coated on plastic, captured on streptavidin plates, amine-coupled to a CM5 chip or free in solution, depending on the assay; also called BLyS; immobilized B Lymphocyte Stimulator

[3] = biological target: T7, biotinylated B Lymphocyte Stimulator, soluble form (human, UniProt Q9Y275 134-285, biotinylated with NHS-biotin, molar ratio 20:1 biotin:protein); assay: phage scFv, receptor binding inhibition on IM9 cells
T7 construct: also called bio-B Lymphocyte Stimulator; free B Lymphocyte Stimulator
Method: Fifty-five μl of each appropriate phage supernatant was added to each well and the final volume in each well was 65 μl. Plates were then incubated at room temperature for 30 minutes.
Plates were washed three times in PBST and three times in PBS, tapped dry and 50 μl of streptavidin-Delfia (Wallac) was added to each well at 1:1000 dilution in the Manufacturer's assay buffer. The plates were then incubated at room temperature for 1 hour and washed six times in Delfia wash solution (Wallac). After tapping the plates dry, 100 μl per well of Delfia enhancement solution (Wallac) was added. The plates were gently tapped to encourage micelle formation, incubated at room temperature for 10 minutes, and fluorescence read on a Wallac 1420 workstation at […].

T5 sequence (P50591 114-281 limits assumed): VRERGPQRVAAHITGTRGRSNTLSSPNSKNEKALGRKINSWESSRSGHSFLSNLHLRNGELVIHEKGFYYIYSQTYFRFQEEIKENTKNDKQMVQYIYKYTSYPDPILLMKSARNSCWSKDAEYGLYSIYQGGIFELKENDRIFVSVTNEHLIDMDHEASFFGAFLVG
T2 sequence (P01375 77-233 limits assumed): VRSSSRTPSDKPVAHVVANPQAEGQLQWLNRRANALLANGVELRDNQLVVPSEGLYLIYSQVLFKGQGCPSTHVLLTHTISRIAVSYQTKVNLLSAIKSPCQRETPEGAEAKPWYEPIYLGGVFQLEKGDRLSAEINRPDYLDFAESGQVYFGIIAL

B1: I050B11 (scFv)
scFv: QVQLVQSGVEVKKPGASVKVSCKASGYTFSNHGISWVRQAPGQGLEWVGWISGHDDSTKYAQKFQGRVTMTADTSTSTAYIELRSLKSDDTAVYYCARPFYDTLTSYVFQYFDHWGQGTMVTVSSGGGGSGGGGSGGGGSALETTLTQSPDTLSLSPGERATLSCRASQSVTRGWVAWYQQKPGQAPRLLMYGTSRRATGVPDRFSGSESGTDFTLTISRLEPEDFAVYYCQQYATSPRTFGQGTRLEIKR
Q: Does B1 bind [1]?
A: binds

Q: Does B1 bind (TNF-alpha)?
A: no binding

Q: Does B1 bind (Fas ligand)?
A: no binding

Q: Does B1 bind (TNF-beta)?
A: no binding

Q: Does B1 bind (TRAIL)?
A: no binding

Q: Does B1 bind [2]?
A: binds

B2: I051C04 (scFv)
scFv: QVQLQQSGAEVKKPGSSVKVSCRTSGGTFSNYGLSWVRQAPGQGLEWMGGVIPISSTIKYGQKFQDRLTIAADDLTNTTFMELSSLRPEDTAVYYCARAATTSQKHNKYAYYFYGMDVWGQGTMVTVSSGGGGSGGGGSGGGGSAQSALTQPASVSGSPGQSITISCTGTSSDVGGYNYVSWYQQHPGKAPKLMIYEVSNRPSGVSNRFSGSKSGNTASLTISGLQAEDEADYYCSSYTSSSTLVFGGGTKVTVLG
notes: also called 1051C04
Q: Does B2 bind [1]?
A: binds

Q: Does B2 bind (TNF-alpha)?
A: no binding

Q: Does B2 bind (Fas ligand)?
A: no binding

Q: Does B2 bind (TNF-beta)?
A: no binding

Q: Does B2 bind (TRAIL)?
A: no binding

Q: Does B2 bind [2]?
A: binds

B3: I008C02 (scFv)
scFv: AVQLQESGPGLVKPSETLSLTCSVSGASMTTNKFYWSWIRQPPGKGLEWIGNINYSKSTNYNPSLKSRITISVDTSKNQLSLKLNSVTAADTAVYYCARHVRDYDILTGYYRGHYFDYWGQGTMVTVSSGGGGSGGGGSGGGGSQSVLTQPASVSGSPGQSITISCTGTSSDVGGYNYVSWYQQHPGKAPKLMIYEGSKRPSGVSNRFSGSKSGNTASLTISGLQAEDEADYYCSSYTTRSTRVFGGGTKLTVLG
Q: Does B3 bind [3]?
A: binds

B4: I029D07 (scFv)
scFv: QVQLQQSGAEVKKPGSSVKVSCKASGYTFTKYTMHWVRQAPGQGPEWMGWINGGSGDTKYSRKFQGRVTITKDTSASAAYMELSSLGSEDTALYYCARATYDPLTGYSFDGFDIWGQGTLVTVSSGGGGSGGGGSGGGGSQSVLTQPASVSGSPGQSITISCTGTSSDVGGYNYVSWYQQHPGKAPKLMIYDVSKRPSGVPDRFSGSKSGNTASLTISGLQAEDEGDYYCSSYAGPSRVFGGGTKVEIKR
Q: Does B4 bind [3]?
A: binds

B5: I008C03 (scFv)
scFv: QMQLVRSGGGVVQPGRSLRLSCAASGFTFSSYGMHWVRQAPGKGLEWVSVTYSGGNTNYADSVRGRFTISRDNSKNTLYLQMNSLRAEDTAVYYCAREGSYDILTGYYVGVGRMDVWGKGTLVTVSSGGGGSGGGGSGGGGSSELTQDPAVSVALGQTVRITCQGDSLRSYYTNWFQQKPGQAPLLVVYAKNKRPSGIPDRFSGSSSGNTASLTITGAQAEDEADYYCNSRDSSGNHVVFGGGTKLTVLG
Q: Does B5 bind [3]?
A: binds

B6: I028A06 (scFv)
scFv: QVQLVESGGGLIQPGGSLRLSCAASGFSFGSYAMSWIRQAPGKGLEWVSTSTGRGGSTYYADSVKGRFTISRDNAKNSLYLQMNSLRAEDAAVYYCARGGDYDILTGLYYYGMDVWGKGTMVTVSSGGGGSGGGGSGGGGSSYVLTQPPSVSGTPGQRVTISCSGGRSNIGSNTVKWYQQLPGTAPKLLIYGNDQRPSGVPDRFSGSKSGTSASLAITGVQAEDEADYYCQSYDSSLRGSRVFGTGTKVTVLG
Q: Does B6 bind [3]?
A: binds

B7: I022E02 (scFv)
scFv: QVQLVQSGAEVKKPGASVMVSCKASGYTFSTYAVHWVRQAPGQGLEWMGRINAGNGYTKYSQKFQGRVTITKDTSASAAYMELSSLGSEDTALYYCARATYDPLTGYSFDGLDIWGKGTMVTVSSGGGGSGGGGSGGGGSQSVLTQPASVSGSPGQSITISCTGTSSDVGGYNYVSWYQQHPGKAPKLMIYEGSKRPSGVSNRFSGSKSGNTASLTISGLQAEDEADYYCSSYTTRSTRVFGGGTKLTVLG
Q: Does B7 bind [3]?
A: binds
